Laboratory results reported in PMC6718625, “CryoEM structures of Arabidopsis DDR complexes involved in RNA-directed DNA methylation” (Nature Communications, 2019).
One block for each binder: values may come before it.

B1: 6xHis-RDM1 (natural protein, Arabidopsis)
chain: SSMTMELRPSGDSGSSDVDAEISDGFSPLDTSHRDVADEGSLLRRAEMYQDYMKQVPIPTNRGSLIPFTSWVGLSISMKQLYGQPLHYLTNVLLQRWDQSRFGTDSEEQRLDSIIHPTKAEATIWLVEEIHRLTPSHLHMALLWRSDPMYHSFIDPIFPEK
notes: RDM1, Arabidopsis; also called His tag-RDM1; source: E. coli Rosetta2 (DE3), pCDFDuet-1, co-expressed with DMS3; purified within the DR or DDR′ complex, or in lysate (pulldown); not shown: 6xHis, N-terminal, kept

How the values were obtained:
[1] = molecular target: the molecule itself; assay: cryo-EM structure; single-particle cryoEM of the purified DR complex, 3.6 Å
6xHis-RDM1 = molecular target: B1; assay: as above; settings: both partners purified
[2] = molecular target: T1, DRD1 peptide 7 with C-terminal Strep II tag (Arabidopsis, UniProt Q9SIW2 45-99); assay: cryo-EM structure; single-particle cryoEM of the purified DDR′ complex (DRD1 peptide 7-DMS3-RDM1), 3.5 Å; settings: both partners purified
T1 construct: DRD1, Arabidopsis, region called peptide 7 in the N-terminal domain; source: E. coli Rosetta2 (DE3), pET21b, co-expressed with RDM1 and DMS3, purified as DDR′ complex (Strep Trap HP, Superdex 200); not shown: Strep II, C-terminal, kept
T1 sequence: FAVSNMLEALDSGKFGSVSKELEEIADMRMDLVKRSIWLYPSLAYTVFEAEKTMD

[3] = molecular target: the molecule itself; assay: SEC; His tag affinity-purified DMS3 WT or G339E on analytical Superdex 200 10/300 GL, 20 mM HEPES-KOH pH 7.5, 150 mM NaCl

Binder: B1
stoichiometry N [1]: 2

B4: His-DMS3 WT (natural protein, Arabidopsis, UniProt Q94A79 1-420, looked up)
chain: MYPTGQQISFQTTPLNVQDPTRMMNLDQSSPVARNETQNGGGIAHAEFAMFNSKRLESDLEAMGNKIKQHEDNLKFLKSQKNKMDEAIVDLQVHMSKLNSSPTPRSENSDNSLQGEDINAQILRHENSAAGVLSLVETLHGAQASQLMLTKGVVGVVAKLGKVNDENLSQILSNYLGTRSMLAVVCRNYESVTALEAYDNHGNIDINAGLHCLGSSIGREIGDSFDAICLENLRPYVGQHIADDLQRRLDLLKPKLPNGECPPGFLGFAVNMIQIDPAYLLCVTSYGYGLRETLFYNLFSRLQVYKTRADMISALPCISDGAVSLDGGIIRKTGIFNLGNRDEVNVRFAKPTASRTMDNYSEAEKKMKELKWKKEKTLEDIKREQVLREHAVFNFGKKKEEFVRCLAQSSCTNQPMNTPR
notes: DMS3, Arabidopsis; also called recombinant DMS3 WT; source: E. coli Rosetta2 (DE3), pCDF-His-DMS3, purified (Ni-NTA agarose)
binding result [3]: binds

The next lines start with results.

stoichiometry N (6xHis-RDM1): 2 DMS3 per RDM1 (4:2)
B2: DMS3 (recombinant, co-expressed with His-RDM1) (natural protein, Arabidopsis)
chain: YPTGQQISFQTTPLNVQDPTRMMNLDQSSPVARNETQNGGGIAHAEFAMFNSKRLESDLEAMGNKIKQHEDNLKFLKSQKNKMDEAIVDLQVHMSKLNSSPTPRSENSDNSLQGEDINAQILRHENSAAGVLSLVETLHGAQASQLMLTKGVVGVVAKLGKVNDENLSQILSNYLGTRSMLAVVCRNYESVTALEAYDNHGNIDINAGLHCLGSSIGREIGDSFDAICLENLRPYVGQHIADDLQRRLDLLKPKLPNGECPPGFLGFAVNMIQIDPAYLLCVTSYGYGLRETLFYNLFSRLQVYKTRADMISALPCISDGAVSLDGGIIRKTGIFNLGNRDEVNVRFAKPTASRTMDNYSEAEKKMKELKWKKEKTLEDIKREQVLREHAVFNFGKKKEEFVRCLAQSSCTNQPMNTPR
notes: DMS3, Arabidopsis; residues 1-42 and 410-420 are said not to be visible in the maps; DMS3h, DMS3hc1 and DMS3hc2 are conformational states of the same chain in the structures; also called DMS3 WT; DMS3h; source: E. coli Rosetta2 (DE3), pCDFDuet-1, co-expressed with His-RDM1; purified within the DR or DDR′ complex, or in lysate (pulldown)
stoichiometry N [1]: 2

stoichiometry N [2]: 1 peptide per DR complex
B3: DR complex (DMS3-RDM1) (complex, Arabidopsis)
chain 1: SSMTMELRPSGDSGSSDVDAEISDGFSPLDTSHRDVADEGSLLRRAEMYQDYMKQVPIPTNRGSLIPFTSWVGLSISMKQLYGQPLHYLTNVLLQRWDQSRFGTDSEEQRLDSIIHPTKAEATIWLVEEIHRLTPSHLHMALLWRSDPMYHSFIDPIFPEK
chain 2: YPTGQQISFQTTPLNVQDPTRMMNLDQSSPVARNETQNGGGIAHAEFAMFNSKRLESDLEAMGNKIKQHEDNLKFLKSQKNKMDEAIVDLQVHMSKLNSSPTPRSENSDNSLQGEDINAQILRHENSAAGVLSLVETLHGAQASQLMLTKGVVGVVAKLGKVNDENLSQILSNYLGTRSMLAVVCRNYESVTALEAYDNHGNIDINAGLHCLGSSIGREIGDSFDAICLENLRPYVGQHIADDLQRRLDLLKPKLPNGECPPGFLGFAVNMIQIDPAYLLCVTSYGYGLRETLFYNLFSRLQVYKTRADMISALPCISDGAVSLDGGIIRKTGIFNLGNRDEVNVRFAKPTASRTMDNYSEAEKKMKELKWKKEKTLEDIKREQVLREHAVFNFGKKKEEFVRCLAQSSCTNQPMNTPR
notes: RDM1, Arabidopsis; DMS3, Arabidopsis; residues 1-42 and 410-420 are said not to be visible in the maps; Stoichiometry 4 DMS3 : 2 RDM1 by cryo-EM; also called DMS3-RDM1 complex; source: E. coli Rosetta2 (DE3), co-expressed from pCDFDuet-1, purified (His Trap HP or, with DRD1 peptide 7, Strep Trap HP; Superdex 200); not shown: 6xHis, N-terminal, kept; copies: 2 + 4
